Here are results for 1 substance from article PMC10858965.

Assay in all cases: filter binding
Holding throughout (conditions): 1 mM MgCl2 in FB buffer; Filter binding: 3 parts FB buffer (50 mM Tris pH 8.0, 1 mM MgCl2) + 1 part SEC buffer (20 mM HEPES pH 7.5, 150 mM NaCl, 1 mM DTT, 10% glycerol), 5 min, room …

The subject of series [1] is Lig4 mDBD1;XRCC4 (Xenopus laevis;Xenopus laevis?).
For series [2], the system named is Lig4 delta-DBD;XRCC4 (Xenopus laevis;Xenopus laevis?).
The subject of series [3] is Lig4 mDBD2;XRCC4 (Xenopus laevis;Xenopus laevis?).
Series [4] concerns Lig4 mDBD1+2;XRCC4 (Xenopus laevis;Xenopus laevis?).

For ~1 kb circular DNA, the binding signal (fold weaker than WT) in series [1] is 10; in series [2], 30; in series [3], 10; in series [4], 30.
